Experimental data: the supplement of paper PMC9170038

System: K4 kissing-loop RNA reporter
Test: apparent KD of K4 kissing-loop reporter; higher = weaker reporter binding
Conditions: Eterna round: R107
Description: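 RNA-MaP round R107: designed RNA switches with theophylline, tryptophan, arginine or FMN aptamers are transcribed on-chip within common flanks. They are titrated with a labelled K4 kissing-loop RNA reporter in RNA-MaP buffer (100 mM Tris pH 7.5, 80 mM KCl, 4 mM MgCl2), without ligand or with the indicated ligand. Median apparent KD per design.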

[1] = input ligand: theophylline 20 uM
[2] = input ligand: tryptophan 2.4 mM
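Also: bound reporter read as fluorescence of individual clusters on recovered sequencing chips by microscopy, with normalized cluster intensities fitted with a binding model.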

With “ACUUAUUGUGUCGAUACCAGCAGGUGACGACGCCUCAUGGCUGACGAGUGAUGUUCGACUUGCCCUUGGCAGCGACAUACGCCGG [theeternabot_sameState_KL_Theo_B_12]” the “apparent KD of K4 kissing-loop reporter” value (input ligand: FMN 200 uM) was 354 nM, the “apparent KD of K4 kissing-loop reporter” value (input ligand: arginine 13.2 mM) was 228 nM and the “apparent KD of K4 kissing-loop reporter” value (input ligand: none) was 356 nM. The “apparent KD of K4 kissing-loop reporter” value [1] was 365 nM and the “apparent KD of K4 kissing-loop reporter” value [2] was 310 nM.
In the case of “ACUUGCACAAAGUCGUCAACCGGUGAAUCAAAGGAUAUUAAUUCACUAAGAAGGUUGAGCCGAGUGAUGUUCGACUGUAAGUCCC [theeternabot_exclusion_KL_FMN_A_34]”, the “apparent KD of K4 kissing-loop reporter” value (input ligand: FMN 200 uM) is reported as 415 nM, the “apparent KD of K4 kissing-loop reporter” value (input ligand: arginine 13.2 mM) is reported as 382 nM and the “apparent KD of K4 kissing-loop reporter” value (input ligand: none) is reported as 551 nM. For the same sequence, the “apparent KD of K4 kissing-loop reporter” value [1] was 506 nM and the “apparent KD of K4 kissing-loop reporter” value [2] was 348 nM.
With “AGAACUGUCUUGGAUACCAGUGAUGUUGGUAUCGAUGUGUGAGUGCAAAGCGUCCCACAUUGCCCUUGGCAGCUAAGACUGUUCA [Omei KL Theo B Exc A v3]” the “apparent KD of K4 kissing-loop reporter” value (input ligand: FMN 200 uM) was 158 nM, the “apparent KD of K4 kissing-loop reporter” value (input ligand: arginine 13.2 mM) was 134 nM and the “apparent KD of K4 kissing-loop reporter” value (input ligand: none) was 148 nM. The “apparent KD of K4 kissing-loop reporter” value [1] was 179 nM and the “apparent KD of K4 kissing-loop reporter” value [2] was 144 nM.
With “AGAAGAUAUCGUGAUACCAGACCGCGGAGAGGCCGGAAGAGGGUAGUGAUGUUGCAUGCAGUCCCUUGGCAGCACUGACAGUAUU [theeternabot_sameState_KL_Theo_B_40]” the “apparent KD of K4 kissing-loop reporter” value (input ligand: FMN 200 uM) was 754 nM, the “apparent KD of K4 kissing-loop reporter” value (input ligand: arginine 13.2 mM) was 287 nM and the “apparent KD of K4 kissing-loop reporter” value (input ligand: none) was 694 nM. The “apparent KD of K4 kissing-loop reporter” value [1] was 539 nM and the “apparent KD of K4 kissing-loop reporter” value [2] was 601 nM.
With “AGACUACCACACUGUCAAUAGACAGUGGACUAGGAUAUGCUGAUAAGCAGAAGGAGUGAUGUUCCUAGGUAGUCAAUAAAAUAAU [FmnAX 13 G28]” the “apparent KD of K4 kissing-loop reporter” value (input ligand: FMN 200 uM) was 357 nM, the “apparent KD of K4 kissing-loop reporter” value (input ligand: arginine 13.2 mM) was 301 nM and the “apparent KD of K4 kissing-loop reporter” value (input ligand: none) was 378 nM. The “apparent KD of K4 kissing-loop reporter” value [1] was 532 nM and the “apparent KD of K4 kissing-loop reporter” value [2] was 396 nM.
With “AGACUACCACACUGUCAAUAGACAGUGUACUAGGAUAUGCUGAUAAGCAGAAGGAGUGAUGUUCCUUGGUAGUCAAUAAAAUAAU [FmnAX 13 U28+U67]” the “apparent KD of K4 kissing-loop reporter” value (input ligand: FMN 200 uM) was 357 nM, the “apparent KD of K4 kissing-loop reporter” value (input ligand: arginine 13.2 mM) was 237 nM and the “apparent KD of K4 kissing-loop reporter” value (input ligand: none) was 258 nM. The “apparent KD of K4 kissing-loop reporter” value [1] was 268 nM and the “apparent KD of K4 kissing-loop reporter” value [2] was 238 nM.
In the case of “AGACUACCUACACUGUCAAUAGACAGUGACUAGGAUAUGCUGAUAAGCAGAAGGAGUGAUGUUCCUGGUAGUCAAAUAAAAUAAU [FmnAX 12 #SwitchBubble #StaticStem #K4Early]”, the “apparent KD of K4 kissing-loop reporter” value (input ligand: FMN 200 uM) is reported as 498 nM, the “apparent KD of K4 kissing-loop reporter” value (input ligand: arginine 13.2 mM) is reported as 295 nM and the “apparent KD of K4 kissing-loop reporter” value (input ligand: none) is reported as 311 nM. For the same sequence, the “apparent KD of K4 kissing-loop reporter” value [1] was 323 nM and the “apparent KD of K4 kissing-loop reporter” value [2] was 278 nM.
For “AGACUACUGAUAGGAUAUAACAUACUACUCGUAUACCGAAAGGUAUACGAGACCCUUCUAGUGAUGUUAGAAGGGUCGGUAGUCA [Omei KL FMN B Exc B v8]”, the “apparent KD of K4 kissing-loop reporter” value (input ligand: FMN 200 uM) was 87.5 nM, the “apparent KD of K4 kissing-loop reporter” value (input ligand: arginine 13.2 mM) was 70.1 nM and the “apparent KD of K4 kissing-loop reporter” value (input ligand: none) was 68.1 nM. For the same sequence, the “apparent KD of K4 kissing-loop reporter” value [1] was 68.6 nM and the “apparent KD of K4 kissing-loop reporter” value [2] was 74.7 nM.
In the case of “AGACUACUGAUAGGAUAUAACAUACUAGCUCGUAUACCAAAGGUAUACGAGCACCUUCUAGUGAUGUUAGAAGGGUCGGUAGUCA [Omei KL FMN B Exc B v3]”, the “apparent KD of K4 kissing-loop reporter” value (input ligand: FMN 200 uM) is reported as 301 nM, the “apparent KD of K4 kissing-loop reporter” value (input ligand: arginine 13.2 mM) is reported as 104 nM and the “apparent KD of K4 kissing-loop reporter” value (input ligand: none) is reported as 108 nM. For the same sequence, the “apparent KD of K4 kissing-loop reporter” value [1] was 109 nM and the “apparent KD of K4 kissing-loop reporter” value [2] was 117 nM.
